Patent US20220267751A1

Molecular target: recombinant streptokinase from Streptococcus pyrogenes (so in the source) (Streptococcus pyrogenes (so in the source))
Test: SPR (Biacore T200), SK on Ni2+-NTA chip, 1:1 Langmuir model

Sequence of native plasminogen (purchased from Merck, purified from human plasma) (P00747 20-810 limits assumed): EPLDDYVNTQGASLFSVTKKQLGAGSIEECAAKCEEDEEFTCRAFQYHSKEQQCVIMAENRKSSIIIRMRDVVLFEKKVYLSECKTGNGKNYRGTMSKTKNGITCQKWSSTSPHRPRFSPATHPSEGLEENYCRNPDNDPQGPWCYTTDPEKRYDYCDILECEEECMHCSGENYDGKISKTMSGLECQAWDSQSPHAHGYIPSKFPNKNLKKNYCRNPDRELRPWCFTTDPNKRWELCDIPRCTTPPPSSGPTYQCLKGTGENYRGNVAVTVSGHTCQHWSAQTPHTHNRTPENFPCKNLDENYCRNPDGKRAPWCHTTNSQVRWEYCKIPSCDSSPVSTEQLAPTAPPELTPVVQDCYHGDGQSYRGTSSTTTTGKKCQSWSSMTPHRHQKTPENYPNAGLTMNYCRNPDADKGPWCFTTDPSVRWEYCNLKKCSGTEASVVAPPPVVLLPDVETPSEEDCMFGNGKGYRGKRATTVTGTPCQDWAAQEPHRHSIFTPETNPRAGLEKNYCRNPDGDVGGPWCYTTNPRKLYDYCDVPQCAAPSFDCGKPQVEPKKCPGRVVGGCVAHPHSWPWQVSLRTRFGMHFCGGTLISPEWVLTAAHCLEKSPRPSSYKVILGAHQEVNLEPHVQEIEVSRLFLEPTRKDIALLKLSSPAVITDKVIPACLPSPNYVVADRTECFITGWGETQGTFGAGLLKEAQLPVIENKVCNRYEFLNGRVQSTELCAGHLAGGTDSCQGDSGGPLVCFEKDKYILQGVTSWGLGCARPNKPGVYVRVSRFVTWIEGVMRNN
Sequence of recombinant plasminogen (P00747 20-810 limits assumed): as above
Sequence of native plasmin (purchased from Haematologic Technologies) (P00747 97-580 limits assumed): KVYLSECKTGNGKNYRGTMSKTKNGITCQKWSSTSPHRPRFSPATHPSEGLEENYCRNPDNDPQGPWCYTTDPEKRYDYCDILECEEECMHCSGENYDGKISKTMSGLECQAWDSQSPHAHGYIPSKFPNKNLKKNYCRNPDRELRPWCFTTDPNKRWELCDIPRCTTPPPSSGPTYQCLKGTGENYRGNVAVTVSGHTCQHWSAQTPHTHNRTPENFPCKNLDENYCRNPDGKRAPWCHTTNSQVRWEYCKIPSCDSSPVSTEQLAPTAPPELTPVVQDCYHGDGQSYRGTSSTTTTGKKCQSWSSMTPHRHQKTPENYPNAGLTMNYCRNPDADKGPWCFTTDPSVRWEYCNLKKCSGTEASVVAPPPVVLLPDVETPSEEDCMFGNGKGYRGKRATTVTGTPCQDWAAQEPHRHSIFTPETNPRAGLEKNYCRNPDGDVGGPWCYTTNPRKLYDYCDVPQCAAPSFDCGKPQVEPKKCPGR
Sequence of native plasmin (purchased from Haematologic Technologies) (P00747 581-810 limits assumed): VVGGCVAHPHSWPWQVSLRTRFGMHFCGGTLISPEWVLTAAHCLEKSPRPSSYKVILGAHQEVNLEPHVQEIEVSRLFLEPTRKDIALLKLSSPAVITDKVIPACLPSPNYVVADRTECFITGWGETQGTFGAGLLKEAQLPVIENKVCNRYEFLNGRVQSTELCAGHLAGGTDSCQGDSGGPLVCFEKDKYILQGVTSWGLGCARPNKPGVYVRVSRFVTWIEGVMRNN

Substance | Kd [nM] | koff [s⁻¹] | kon [M⁻¹ s⁻¹]
native plasmin (purchased from Haematologic Technologies) (from UniProt P00747 97-580; P00747 581-810) (enzyme) | 0.33 | 0.0023 | 7.1e+06
native plasminogen (purchased from Merck, purified from human plasma) (from UniProt P00747 20-810) | 1.4 | 0.00032 | 230000
recombinant plasminogen (from UniProt P00747 20-810) | 1.4 | 0.00036 | 270000
